Among the data in doi:10.1101/2025.07.01.662498, “Automodification of N-terminal serine residues in PARP2 impacts PARP2 release from DNA damage sites” are Kd values, retold here.

Broadly, the Kd is the equilibrium constant for the complex coming apart.

The target in the data set is PARP2 WT (human, UniProt Q9UGN5 1-583). Briefly: fluorescence polarization; HPF1 not mentioned for this value; 10 mM HEPES pH 8.0, 150 mM NaCl, 0.1 mg/ml BSA, 0.1 mM TCEP, 0.1 mM EDTA, 25 C (FP). Conditions: protein: recombinant; tags: His6-TEV, tag cleaved; nicked dumbbell: two hairpins with TTTT loops, one strand. In general terms: In fluorescence polarisation assays a small probe gives low polarisation when free and higher when bound to something large.
Chain of PARP2 WT (Q9UGN5 whole entry): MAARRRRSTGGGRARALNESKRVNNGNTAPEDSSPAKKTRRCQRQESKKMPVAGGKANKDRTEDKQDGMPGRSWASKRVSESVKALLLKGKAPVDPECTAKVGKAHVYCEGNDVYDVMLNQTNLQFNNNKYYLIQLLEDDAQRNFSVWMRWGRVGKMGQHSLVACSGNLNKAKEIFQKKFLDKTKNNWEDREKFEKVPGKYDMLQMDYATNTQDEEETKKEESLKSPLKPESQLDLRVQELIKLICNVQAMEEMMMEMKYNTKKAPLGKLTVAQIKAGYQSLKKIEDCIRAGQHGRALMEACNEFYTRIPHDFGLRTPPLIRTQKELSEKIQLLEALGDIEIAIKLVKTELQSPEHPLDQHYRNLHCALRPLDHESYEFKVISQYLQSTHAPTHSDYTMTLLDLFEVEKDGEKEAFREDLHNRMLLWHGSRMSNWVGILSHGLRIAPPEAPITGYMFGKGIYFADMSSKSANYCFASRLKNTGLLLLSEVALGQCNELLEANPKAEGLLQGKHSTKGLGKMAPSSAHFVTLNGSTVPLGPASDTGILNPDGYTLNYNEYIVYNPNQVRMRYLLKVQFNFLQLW

B1: fluorescein-labelled nicked dumbbell DNA, 5'-phosphate (structured_DNA)
DNA: GGAAGTCTTTTGACTTCCTCGAAGCTTTTGCTTCGA
modifications: 5'-phosphate
On to B1, for which the Kd is 4.8 ± 2.9 nM.
